PMC2768988

Assays:
[1] = biological target: Flrt1a ectodomain (zebrafish); experiment: SPR; BIAcore, kinetic analysis; same surfaces; three concentrations of Unc5b-Cd4d3+4-6His, flow 100 μl/min, 10 Hz, global fit of first-order decay and of an association model; HBS-EP, 28°C; purification of the Flrt baits not stated
[2] = biological target: Flrt1b ectodomain (zebrafish); experiment: as above
[3] = biological target: Flrt3 ectodomain (zebrafish); experiment: as above
[4] = biological target: Flrt1a ectodomain (zebrafish); experiment: SPR; BIAcore, equilibrium analysis; biotinylated Flrt-Cd4d3+4-bio baits (about 1000 RU) on a streptavidin-coated chip, Cd4d3+4-bio as reference; purified monomeric Unc5b-Cd4d3+4-6His injected; HBS-EP, 28°C; purification of the Flrt baits not stated
[5] = biological target: Flrt1b ectodomain (zebrafish); experiment: as above
[6] = biological target: Flrt3 ectodomain (zebrafish); experiment: as above

koff [1]: > 7 s⁻¹
kon [1]: > 100000 M⁻¹ s⁻¹
t1/2 [1]: < 0.1 s
koff [2]: 0.6 s⁻¹
kon [2]: > 100000 M⁻¹ s⁻¹
t1/2 [2]: 1.2 s
kon [3]: > 100000 M⁻¹ s⁻¹
Kd [4]: > 50 µM
Kd [5]: 4 µM
Kd [6]: 14 µM
Substance: Unc5b-Cd4d3+4-6His (domain or fragment)
